In the supplement of paper PMC10567573:

B1: MMP1 (parent)
chain: MFFKDRFYMRTNPFYPEVELNFIS
B2: RIT1 (parent)
chain: FHALVREIRRKEKEAVLAMEKKSK

Variants of: B1
Assay: protein stability index of a GFP-peptide fusion (GPS, HEK-293T) (PSI 1-6); higher = more stable
Settings: c terminus: a fixed tail appended
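Note: lentivirally expressed fusions sorted by FACS into six bins by GFP to DsRed ratio, PSI derived from sequencing read proportions per bin multiplied by bin number.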

| Variant | protein stability index |
| --- | --- |
| MFFKDRFYMRTNPFYPEVELNFIW | 3.15 |
| MFFKDRFYMRTNPFYPEVELNFIY | 3.13 |

Variants of: B2
Assay: as above
Settings: c terminus: a fixed tail appended

| Variant | protein stability index |
| --- | --- |
| FHALYREIRRKEKEAVLAMEKKSK | 1.82 |
| FHALWREIRRKEKEAVLAMEKKSK | 1.77 |
| FHALPREIRRKEKEAVLAMEKKSK | 1.73 |
| FHALLREIRRKEKEAVLAMEKKSK | 2.01 |
| FHALEREIRRKEKEAVLAMEKKSK | 2.65 |
| FHALCREIRRKEKEAVLAMEKKSK | 2.08 |
| FHALHREIRRKEKEAVLAMEKKSK | 1.97 |
| FHALSREIRRKEKEAVLAMEKKSK | 1.43 |
| FHALDREIRRKEKEAVLAMEKKSK | 2.85 |
| FHALTREIRRKEKEAVLAMEKKSK | 1.98 |
| FHALNREIRRKEKEAVLAMEKKSK | 1.8 |
| FHALAREIRRKEKEAVLAMEKKSK | 1.46 |
| FHALRREIRRKEKEAVLAMEKKSK | 2.27 |
| FHALGREIRRKEKEAVLAMEKKSK | 2.14 |
| FHALIREIRRKEKEAVLAMEKKSK | 2.56 |
| FHALKREIRRKEKEAVLAMEKKSK | 1.84 |
| FHALMREIRRKEKEAVLAMEKKSK | 2.54 |
| FHALQREIRRKEKEAVLAMEKKSK | 2.19 |
| FHALFREIRRKEKEAVLAMEKKSK | 1.97 |
| FHAHVREIRRKEKEAVLAMEKKSK | 2.36 |
| FHAVVREIRRKEKEAVLAMEKKSK | 2.24 |
| FHAPVREIRRKEKEAVLAMEKKSK | 3.1 |
| FHANVREIRRKEKEAVLAMEKKSK | 2.65 |
| FHAKVREIRRKEKEAVLAMEKKSK | 2.99 |

| Variant | protein stability index |
| --- | --- |
| FHAYVREIRRKEKEAVLAMEKKSK | 2.66 |
| FHACVREIRRKEKEAVLAMEKKSK | 1.92 |
| FHAIVREIRRKEKEAVLAMEKKSK | 2.35 |
| FHADVREIRRKEKEAVLAMEKKSK | 3.26 |
| FHAQVREIRRKEKEAVLAMEKKSK | 2.08 |
| FHARVREIRRKEKEAVLAMEKKSK | 2.44 |
| FHATVREIRRKEKEAVLAMEKKSK | 2.23 |
| FHAMVREIRRKEKEAVLAMEKKSK | 3.92 |
| FHAEVREIRRKEKEAVLAMEKKSK | 3.18 |
| FHAGVREIRRKEKEAVLAMEKKSK | 2.52 |
| FHAFVREIRRKEKEAVLAMEKKSK | 2.35 |
| FHAAVREIRRKEKEAVLAMEKKSK | 2.06 |
| FHASVREIRRKEKEAVLAMEKKSK | 2.77 |
| FHAWVREIRRKEKEAVLAMEKKSK | 1.77 |
| FHELVREIRRKEKEAVLAMEKKSK | 1.48 |
| FHRLVREIRRKEKEAVLAMEKKSK | 2.05 |
| FHFLVREIRRKEKEAVLAMEKKSK | 2.34 |
| FHLLVREIRRKEKEAVLAMEKKSK | 1.97 |
| FHILVREIRRKEKEAVLAMEKKSK | 2.12 |
| FHCLVREIRRKEKEAVLAMEKKSK | 2.07 |
| FHSLVREIRRKEKEAVLAMEKKSK | 1.42 |
| FHVLVREIRRKEKEAVLAMEKKSK | 1.69 |
| FHKLVREIRRKEKEAVLAMEKKSK | 2.04 |
| FHHLVREIRRKEKEAVLAMEKKSK | 1.41 |

| Variant | protein stability index |
| --- | --- |
| FHMLVREIRRKEKEAVLAMEKKSK | 1.96 |
| FHDLVREIRRKEKEAVLAMEKKSK | 2.19 |
| FHGLVREIRRKEKEAVLAMEKKSK | 2.15 |
| FHTLVREIRRKEKEAVLAMEKKSK | 2.28 |
| FHNLVREIRRKEKEAVLAMEKKSK | 1.87 |
| FHQLVREIRRKEKEAVLAMEKKSK | 2.45 |
| FHYLVREIRRKEKEAVLAMEKKSK | 2.13 |
| FHPLVREIRRKEKEAVLAMEKKSK | 1.45 |
| FHALVREIRHKEKEAVLAMEKKSK | 2.18 |
| FHALVREIRKKEKEAVLAMEKKSK | 1.33 |
| FHALVREIRFKEKEAVLAMEKKSK | 4.17 |
| FHALVREIRTKEKEAVLAMEKKSK | 2.09 |
| FHALVREIRCKEKEAVLAMEKKSK | 2.7 |
| FHALVREIRAKEKEAVLAMEKKSK | 3.88 |
| FHALVREIRNKEKEAVLAMEKKSK | 2.34 |
| FHALVREIRDKEKEAVLAMEKKSK | 1.94 |
| FHALVREIRWKEKEAVLAMEKKSK | 1.75 |
| FHALVREIRLKEKEAVLAMEKKSK | 1.55 |
| FHALVREIRSKEKEAVLAMEKKSK | 1.59 |
| FHALVREIRVKEKEAVLAMEKKSK | 2.29 |
| FHALVREIREKEKEAVLAMEKKSK | 1.7 |
| FHALVREIRGKEKEAVLAMEKKSK | 2.06 |
| FHALVREIRQKEKEAVLAMEKKSK | 1.36 |
| FHALVREIRPKEKEAVLAMEKKSK | 2.31 |

| Variant | protein stability index |
| --- | --- |
| FHALVREIRMKEKEAVLAMEKKSK | 2.19 |
| FHALVREIRIKEKEAVLAMEKKSK | 2.61 |
| FFALVREIRRKEKEAVLAMEKKSK | 2.73 |
| FEALVREIRRKEKEAVLAMEKKSK | 3.37 |
| FSALVREIRRKEKEAVLAMEKKSK | 1.96 |
| FTALVREIRRKEKEAVLAMEKKSK | 2.55 |
| FLALVREIRRKEKEAVLAMEKKSK | 2.61 |
| FCALVREIRRKEKEAVLAMEKKSK | 2.57 |
| FGALVREIRRKEKEAVLAMEKKSK | 2.83 |
| FRALVREIRRKEKEAVLAMEKKSK | 3.02 |
| FMALVREIRRKEKEAVLAMEKKSK | 2 |
| FYALVREIRRKEKEAVLAMEKKSK | 2.72 |
| FQALVREIRRKEKEAVLAMEKKSK | 2.95 |
| FIALVREIRRKEKEAVLAMEKKSK | 2.04 |
| FDALVREIRRKEKEAVLAMEKKSK | 3.76 |
| FNALVREIRRKEKEAVLAMEKKSK | 3.23 |
| FKALVREIRRKEKEAVLAMEKKSK | 2.73 |
| FWALVREIRRKEKEAVLAMEKKSK | 3.04 |
| FAALVREIRRKEKEAVLAMEKKSK | 2.64 |
| FPALVREIRRKEKEAVLAMEKKSK | 3.35 |
| RHALVREIRRKEKEAVLAMEKKSK | 4.48 |
| THALVREIRRKEKEAVLAMEKKSK | 4.16 |
| EHALVREIRRKEKEAVLAMEKKSK | 5.2 |
| CHALVREIRRKEKEAVLAMEKKSK | 3.53 |

| Variant | protein stability index |
| --- | --- |
| IHALVREIRRKEKEAVLAMEKKSK | 2.93 |
| YHALVREIRRKEKEAVLAMEKKSK | 1.92 |
| NHALVREIRRKEKEAVLAMEKKSK | 4.67 |
| HHALVREIRRKEKEAVLAMEKKSK | 4.2 |
| SHALVREIRRKEKEAVLAMEKKSK | 4.14 |
| MHALVREIRRKEKEAVLAMEKKSK | 3.69 |
| LHALVREIRRKEKEAVLAMEKKSK | 2.86 |
| WHALVREIRRKEKEAVLAMEKKSK | 2.43 |
| VHALVREIRRKEKEAVLAMEKKSK | 3.04 |
| GHALVREIRRKEKEAVLAMEKKSK | 4.36 |
| KHALVREIRRKEKEAVLAMEKKSK | 4.06 |
| AHALVREIRRKEKEAVLAMEKKSK | 3.95 |
| QHALVREIRRKEKEAVLAMEKKSK | 4.72 |
| PHALVREIRRKEKEAVLAMEKKSK | 4.61 |
| DHALVREIRRKEKEAVLAMEKKSK | 4.03 |
| FHALVREIMRKEKEAVLAMEKKSK | 2.03 |
| FHALVREIQRKEKEAVLAMEKKSK | 2.5 |
| FHALVREIERKEKEAVLAMEKKSK | 2.06 |
| FHALVREILRKEKEAVLAMEKKSK | 2.12 |
| FHALVREIGRKEKEAVLAMEKKSK | 2.27 |
| FHALVREIARKEKEAVLAMEKKSK | 1.82 |
| FHALVREIPRKEKEAVLAMEKKSK | 2.8 |
| FHALVREINRKEKEAVLAMEKKSK | 2.23 |
| FHALVREITRKEKEAVLAMEKKSK | 1.64 |

| Variant | protein stability index |
| --- | --- |
| FHALVREISRKEKEAVLAMEKKSK | 1.85 |
| FHALVREIIRKEKEAVLAMEKKSK | 2 |
| FHALVREICRKEKEAVLAMEKKSK | 1.72 |
| FHALVREIKRKEKEAVLAMEKKSK | 1.77 |
| FHALVREIHRKEKEAVLAMEKKSK | 1.54 |
| FHALVREIDRKEKEAVLAMEKKSK | 2.48 |
| FHALVREIVRKEKEAVLAMEKKSK | 2.42 |
| FHALVREIYRKEKEAVLAMEKKSK | 2.09 |
| FHALVREIWRKEKEAVLAMEKKSK | 2.02 |
| FHALVRETRRKEKEAVLAMEKKSK | 1.87 |
| FHALVRENRRKEKEAVLAMEKKSK | 2.77 |
| FHALVRELRRKEKEAVLAMEKKSK | 1.65 |
| FHALVREERRKEKEAVLAMEKKSK | 2.87 |
| FHALVREFRRKEKEAVLAMEKKSK | 2.34 |
| FHALVREYRRKEKEAVLAMEKKSK | 2.01 |
| FHALVREKRRKEKEAVLAMEKKSK | 2.31 |
| FHALVREPRRKEKEAVLAMEKKSK | 2.28 |
| FHALVREWRRKEKEAVLAMEKKSK | 2.35 |
| FHALVREARRKEKEAVLAMEKKSK | 2.93 |
| FHALVREGRRKEKEAVLAMEKKSK | 2.23 |
| FHALVREDRRKEKEAVLAMEKKSK | 3.15 |
| FHALVREVRRKEKEAVLAMEKKSK | 1.78 |
| FHALVREQRRKEKEAVLAMEKKSK | 2.47 |
| FHALVREMRRKEKEAVLAMEKKSK | 2.32 |

| Variant | protein stability index |
| --- | --- |
| FHALVRECRRKEKEAVLAMEKKSK | 2.25 |
| FHALVRERRRKEKEAVLAMEKKSK | 2.32 |
| FHALVRESRRKEKEAVLAMEKKSK | 3.08 |
| FHALVREHRRKEKEAVLAMEKKSK | 2.14 |
| FHALVRSIRRKEKEAVLAMEKKSK | 2.44 |
| FHALVRHIRRKEKEAVLAMEKKSK | 1.97 |
| FHALVRVIRRKEKEAVLAMEKKSK | 3.23 |
| FHALVRCIRRKEKEAVLAMEKKSK | 2.16 |
| FHALVRTIRRKEKEAVLAMEKKSK | 1.5 |
| FHALVRRIRRKEKEAVLAMEKKSK | 1.87 |
| FHALVRKIRRKEKEAVLAMEKKSK | 1.36 |
| FHALVRYIRRKEKEAVLAMEKKSK | 2.04 |
| FHALVRQIRRKEKEAVLAMEKKSK | 1.32 |
| FHALVRLIRRKEKEAVLAMEKKSK | 4.8 |
| FHALVRFIRRKEKEAVLAMEKKSK | 1.82 |
| FHALVRPIRRKEKEAVLAMEKKSK | 2.58 |
| FHALVRWIRRKEKEAVLAMEKKSK | 1.59 |
| FHALVRDIRRKEKEAVLAMEKKSK | 1.8 |
| FHALVRNIRRKEKEAVLAMEKKSK | 2.44 |
| FHALVRMIRRKEKEAVLAMEKKSK | 2.82 |
| FHALVRIIRRKEKEAVLAMEKKSK | 2.24 |
| FHALVRGIRRKEKEAVLAMEKKSK | 1.62 |
| FHALVRAIRRKEKEAVLAMEKKSK | 2.79 |
| FHALVKEIRRKEKEAVLAMEKKSK | 1.43 |

| Variant | protein stability index |
| --- | --- |
| FHALVMEIRRKEKEAVLAMEKKSK | 1.81 |
| FHALVEEIRRKEKEAVLAMEKKSK | 1.55 |
| FHALVTEIRRKEKEAVLAMEKKSK | 3.19 |
| FHALVCEIRRKEKEAVLAMEKKSK | 2.07 |
| FHALVLEIRRKEKEAVLAMEKKSK | 1.55 |
| FHALVHEIRRKEKEAVLAMEKKSK | 1.42 |
| FHALVSEIRRKEKEAVLAMEKKSK | 2.06 |
| FHALVYEIRRKEKEAVLAMEKKSK | 1.73 |
| FHALVVEIRRKEKEAVLAMEKKSK | 1.75 |
| FHALVDEIRRKEKEAVLAMEKKSK | 1.26 |
| FHALVGEIRRKEKEAVLAMEKKSK | 1.76 |
| FHALVWEIRRKEKEAVLAMEKKSK | 1.81 |
| FHALVNEIRRKEKEAVLAMEKKSK | 2.47 |
| FHALVFEIRRKEKEAVLAMEKKSK | 2.74 |
| FHALVIEIRRKEKEAVLAMEKKSK | 2.22 |
| FHALVAEIRRKEKEAVLAMEKKSK | 1.34 |
| FHALVQEIRRKEKEAVLAMEKKSK | 1.84 |
| FHALVPEIRRKEKEAVLAMEKKSK | 1.81 |
